Data as given in patent US10370433B2, “Compositions and methods for diagnosis and treatment of cancer” (BIONTECH AG, priority 2015, dated 2019).
Read-outs that look alike come from different tables or passages of the source.

Tests used:
[1] = human, in vivo, iv
in vivo = conditions: BALB/c nu/nu, mouse, iv, total radioactivity; for tissue uptake at 1 h / tissue uptake at 2 h / tissue uptake at 4 h / tissue uptake at 6 h / tissue uptake at 24 h / tissue uptake at 0.5 h: Mean % ID/g; for tissue uptake at 0.5 h: 30 min

Compound: CC[C@H](C)[C@@H]1NC(=O)[C@@H]2CSSC[C@H](NC(=O)[C@H](C)NC(=O)CNC(=O)[C@H](CO)NC(=O)CNC(=O)CON=CC(=O)NCCCC[C@H](NC(=O)[C@H](CO)NC(=O)CNC(=O)[C@H](CO)NC(=O)CNC(=O)[C@H](CCCCNC(=O)C=NOCC(=O)NCC(=O)N[C@@H](CO)C(=O)NCC(=O)N[C@@H](C)C(=O)N[C@H]3CSSC[C@@H]4NC(=O)[C@H](CCCNC(=N)N)NC(=O)CNC(=O)[C@@H]5CCCN5C(=O)[C@@H]5CSSC[C@@H](C(=O)NCC(=O)O)NC(=O)[C@H](Cc6ccc(O)cc6)NC(=O)CNC(=O)[C@H](CC(N)=O)NC(=O)CNC(=O)[C@H](CCCNC(=N)N)NC(=O)[C@H](CSSC[C@H](NC(=O)[C@H](CC(=O)O)NC(=O)[C@@H]6CCCN6C(=O)CNC(=O)[C@H](CCCNC(=N)N)NC(=O)CNC(=O)[C@@H]6CCCN6C(=O)[C@H]([C@@H](C)O)NC(=O)[C@H](Cc6c[nH]c7ccccc67)NC(=O)[C@H](CC(N)=O)NC(=O)[C@H](CO)NC(=O)[C@H](Cc6ccc(O)cc6)NC(=O)[C@@H]6CCCN6C3=O)C(=O)N[C@@H](CCCNC(=N)N)C(=O)N[C@@H](CCCNC(=N)N)C(=O)N[C@@H](CC(=O)O)C(=O)N[C@@H](CO)C(=O)N[C@@H](CC(=O)O)C(=O)N5)NC(=O)[C@H]([C@@H](C)CC)NC4=O)NC(=O)[C@H](CO)NC(=O)CNC(=O)[C@H](CO)NC(=O)CNC(=O)[C@H](CCCCNC(=O)C=NOCC(=O)NCC(=O)N[C@@H](CO)C(=O)NCC(=O)N[C@@H](C)C(=O)N[C@H]3CSSC[C@@H]4NC(=O)[C@H](CCCNC(=N)N)NC(=O)CNC(=O)[C@@H]5CCCN5C(=O)[C@@H]5CSSC[C@@H](C(=O)NCC(=O)O)NC(=O)[C@H](Cc6ccc(O)cc6)NC(=O)CNC(=O)[C@H](CC(N)=O)NC(=O)CNC(=O)[C@H](CCCNC(=N)N)NC(=O)[C@H](CSSC[C@H](NC(=O)[C@H](CC(=O)O)NC(=O)[C@@H]6CCCN6C(=O)CNC(=O)[C@H](CCCNC(=N)N)NC(=O)CNC(=O)[C@@H]6CCCN6C(=O)[C@H]([C@@H](C)O)NC(=O)[C@H](Cc6c[nH]c7ccccc67)NC(=O)[C@H](CC(N)=O)NC(=O)[C@H](CO)NC(=O)[C@H](Cc6ccc(O)cc6)NC(=O)[C@@H]6CCCN6C3=O)C(=O)N[C@@H](CCCNC(=N)N)C(=O)N[C@@H](CCCNC(=N)N)C(=O)N[C@@H](CC(=O)O)C(=O)N[C@@H](CO)C(=O)N[C@@H](CC(=O)O)C(=O)N5)NC(=O)[C@H]([C@@H](C)CC)NC4=O)NC(=O)[C@H](CO)NC(=O)CNC(=O)[C@H](CO)NC(=O)CNC(=O)CN3CCN(CC(=O)O)CCN(CC(=O)O)CCN(CC(=O)O)CC3)C(=O)O)C(=O)N3CCC[C@H]3C(=O)N[C@@H](Cc3ccc(O)cc3)C(=O)N[C@@H](CO)C(=O)N[C@@H](CC(N)=O)C(=O)N[C@@H](Cc3c[nH]c4ccccc34)C(=O)N[C@@H]([C@@H](C)O)C(=O)N3CCC[C@H]3C(=O)NCC(=O)N[C@@H](CCCNC(=N)N)C(=O)NCC(=O)N3CCC[C@H]3C(=O)N[C@@H](CC(=O)O)C(=O)N[C@H]3CSSC[C@H](NC1=O)C(=O)N[C@@H](CCCNC(=N)N)C(=O)NCC(=O)N[C@@H](CC(N)=O)C(=O)NCC(=O)N[C@@H](Cc1ccc(O)cc1)C(=O)N[C@H](C(=O)NCC(=O)O)CSSC[C@H](NC(=O)[C@H](CC(=O)O)NC(=O)[C@H](CO)NC(=O)[C@H](CC(=O)O)NC(=O)[C@H](CCCNC(=N)N)NC(=O)[C@H](CCCNC(=N)N)NC3=O)C(=O)N1CCC[C@H]1C(=O)NCC(=O)N[C@@H](CCCNC(=N)N)C(=O)N2 (single isomer, unassigned) [^177Lu-(MC-FA-012)3, metal not drawn]
- Mean % ID/g, Brain (CT26-huSeprase tumors; 30 min): 0.6895 % ID/g
- Mean % ID/g, Injection site (CT26-huSeprase tumors; 30 min): 4.2434 % ID/g
- Mean % ID/g, Intestine (CT26-huSeprase tumors; 30 min): 0.7435 % ID/g
- Mean % ID/g, Kidneys (CT26-huSeprase tumors; 30 min): 286.7812 % ID/g
- Mean % ID/g, Muscle (CT26-huSeprase tumors; 30 min): 0.0589 % ID/g
- Mean % ID/g, Spleen (CT26-huSeprase tumors; 30 min): 0.9253 % ID/g
- Mean % ID/g, Tumor (CT26-huSeprase tumors; 30 min): 9.8546 % ID/g
- Mean % ID/g, Brain (CT26-huSeprase tumors; 1 h): 0.2284 % ID/g
- Mean % ID/g, Injection site (CT26-huSeprase tumors; 1 h): 15.2418 % ID/g
- Mean % ID/g, Intestine (CT26-huSeprase tumors; 1 h): 0.5079 % ID/g
- Mean % ID/g, Muscle (CT26-huSeprase tumors; 1 h): 0.0423 % ID/g
- Mean % ID/g, Spleen (CT26-huSeprase tumors; 1 h): 0.5493 % ID/g
- Mean % ID/g, Tumor (CT26-huSeprase tumors; 1 h): 6.7929 % ID/g
- Mean % ID/g, Brain (CT26-huSeprase tumors; 2 h): 0.5818 % ID/g
- Mean % ID/g, Intestine (CT26-huSeprase tumors; 2 h): 1.0902 % ID/g
- Mean % ID/g, Kidneys (CT26-huSeprase tumors; 2 h): 272.3888 % ID/g
- Mean % ID/g, Muscle (CT26-huSeprase tumors; 2 h): 0.0317 % ID/g
- Mean % ID/g, Spleen (CT26-huSeprase tumors; 2 h): 0.6561 % ID/g
- Mean % ID/g, Tumor (CT26-huSeprase tumors; 2 h): 8.1504 % ID/g
- Mean % ID/g, Brain (CT26-huSeprase tumors; 4 h): 0.3159 % ID/g
- Mean % ID/g, Intestine (CT26-huSeprase tumors; 4 h): 0.2913 % ID/g
- Mean % ID/g, Kidneys (CT26-huSeprase tumors; 4 h): 245.1877 % ID/g
- Mean % ID/g, Muscle (CT26-huSeprase tumors; 4 h): 0.0241 % ID/g
- Mean % ID/g, Spleen (CT26-huSeprase tumors; 4 h): 0.5931 % ID/g
- Mean % ID/g, Tumor (CT26-huSeprase tumors; 4 h): 7.7667 % ID/g
- Mean % ID/g, Brain (CT26-huSeprase tumors; 6 h): 0.2159 % ID/g
- Mean % ID/g, Intestine (CT26-huSeprase tumors; 6 h): 0.9309 % ID/g
- Mean % ID/g, Kidneys (CT26-huSeprase tumors; 6 h): 259.4467 % ID/g
- Mean % ID/g, Muscle (CT26-huSeprase tumors; 6 h): 0.1259 % ID/g
- Mean % ID/g, Spleen (CT26-huSeprase tumors; 6 h): 0.6287 % ID/g
- Mean % ID/g, Tumor (CT26-huSeprase tumors; 6 h): 7.8057 % ID/g
- Mean % ID/g, Brain (CT26-huSeprase tumors; 24 h): 0.2151 % ID/g
- Mean % ID/g, Intestine (CT26-huSeprase tumors; 24 h): 0.3347 % ID/g
- Mean % ID/g, Kidneys (CT26-huSeprase tumors; 24 h): 213.4107 % ID/g
- Mean % ID/g, Muscle (CT26-huSeprase tumors; 24 h): 0.0253 % ID/g
- Mean % ID/g, Spleen (CT26-huSeprase tumors; 24 h): 0.4561 % ID/g
- Mean % ID/g, Tumor (CT26-huSeprase tumors; 24 h): 5.8505 % ID/g
- Mean % ID/g, Kidneys (CT26-huSeprase tumors; mouse, in vivo): 222.3177 % ID/g
- signal in tumor (CT26-huSeprase tumors; mouse, in vivo): 9.9-5.9
- tumor targeting (CT26-huSeprase tumors; mouse, in vivo): specific tumor targeting
- acute nephrotoxicity [1]: no acute nephrotoxicity
- tissue uptake at 1 h (in vivo): 0.67 %ID/g
- tissue uptake at 2 h (in vivo): 0.607 %ID/g
- tissue uptake at 4 h (in vivo): 0.451 %ID/g
- tissue uptake at 6 h (in vivo): 0.648 %ID/g
- tissue uptake at 24 h (in vivo): 0.189 %ID/g
- tissue uptake at 0.5 h (in vivo; Blood): 1.35 %ID/g
- tissue uptake at 1 h (in vivo; Blood): 0.36 %ID/g
- tissue uptake at 2 h (in vivo; Blood): 0.135 %ID/g
- tissue uptake at 4 h (in vivo; Blood): 0.042 %ID/g
- tissue uptake at 6 h (in vivo; Blood): 0.0374 %ID/g
- tissue uptake at 24 h (in vivo; Blood): 0.0429 %ID/g
- tissue uptake at 0.5 h (in vivo; Heart): 0.615 %ID/g
- tissue uptake at 1 h (in vivo; Heart): 0.187 %ID/g
- tissue uptake at 2 h (in vivo; Heart): 0.128 %ID/g
- tissue uptake at 4 h (in vivo; Heart): 0.102 %ID/g
- tissue uptake at 6 h (in vivo; Heart): 0.0876 %ID/g
- tissue uptake at 24 h (in vivo; Heart): 0.0641 %ID/g
- tissue uptake at 2 h (in vivo; Injection site): 2.87 %ID/g
- tissue uptake at 4 h (in vivo; Injection site): 2.61 %ID/g
- tissue uptake at 6 h (in vivo; Injection site): 1.57 %ID/g
- tissue uptake at 24 h (in vivo; Injection site): 0.983 %ID/g
- tissue uptake at 0.5 h (in vivo; Liver): 0.668 %ID/g
- tissue uptake at 1 h (in vivo; Liver): 0.398 %ID/g
- tissue uptake at 2 h (in vivo; Liver): 0.44 %ID/g
- tissue uptake at 4 h (in vivo; Liver): 0.41 %ID/g
- tissue uptake at 6 h (in vivo; Liver): 0.431 %ID/g
- tissue uptake at 24 h (in vivo; Liver): 0.363 %ID/g
- tissue uptake (in vivo; signal in kidney): 287 %ID/g
